Where no end group is shown, it is not given here. The star is where a group is joined. C16 diacid = O=C(O)CCCCCCCCCCCCCCC(=O)*

The source of these data is US20220298218A1 (ANTAG THERAPEUTICS, published 2022).

First the molecules themselves.
B1: AT464 (peptide)
peptide: FISDYSIAMDKIK(C16 diacid)QQDFVNWLLAQKGKKNDW-OH
modifications: N-terminus assumed
SMILES: CC[C@H](C)[C@H](NC(=O)[C@H](CO)NC(=O)[C@H](Cc1ccc(O)cc1)NC(=O)[C@H](CC(=O)O)NC(=O)[C@H](CO)NC(=O)[C@@H](NC(=O)[C@@H](N)Cc1ccccc1)[C@@H](C)CC)C(=O)N[C@@H](C)C(=O)N[C@@H](CCSC)C(=O)N[C@@H](CC(=O)O)C(=O)N[C@@H](CCCCN)C(=O)N[C@H](C(=O)N[C@@H](CCCCNC(=O)CCCCCCCCCCCCCCC(=O)O)C(=O)N[C@@H](CCC(N)=O)C(=O)N[C@@H](CCC(N)=O)C(=O)N[C@@H](CC(=O)O)C(=O)N[C@@H](Cc1ccccc1)C(=O)N[C@H](C(=O)N[C@@H](CC(N)=O)C(=O)N[C@@H](Cc1c[nH]c2ccccc12)C(=O)N[C@@H](CC(C)C)C(=O)N[C@@H](CC(C)C)C(=O)N[C@@H](C)C(=O)N[C@@H](CCC(N)=O)C(=O)N[C@@H](CCCCN)C(=O)NCC(=O)N[C@@H](CCCCN)C(=O)N[C@@H](CCCCN)C(=O)N[C@@H](CC(N)=O)C(=O)N[C@@H](CC(=O)O)C(=O)N[C@@H](Cc1c[nH]c2ccccc12)C(=O)O)C(C)C)[C@@H](C)CC
B2: AT463 (peptide)
peptide: FISDYSIAMDKIK(C16 diacid)QQDFVNWLLAQKGKK-OH
modifications: N-terminus assumed
SMILES: CC[C@H](C)[C@H](NC(=O)[C@H](CO)NC(=O)[C@H](Cc1ccc(O)cc1)NC(=O)[C@H](CC(=O)O)NC(=O)[C@H](CO)NC(=O)[C@@H](NC(=O)[C@@H](N)Cc1ccccc1)[C@@H](C)CC)C(=O)N[C@@H](C)C(=O)N[C@@H](CCSC)C(=O)N[C@@H](CC(=O)O)C(=O)N[C@@H](CCCCN)C(=O)N[C@H](C(=O)N[C@@H](CCCCNC(=O)CCCCCCCCCCCCCCC(=O)O)C(=O)N[C@@H](CCC(N)=O)C(=O)N[C@@H](CCC(N)=O)C(=O)N[C@@H](CC(=O)O)C(=O)N[C@@H](Cc1ccccc1)C(=O)N[C@H](C(=O)N[C@@H](CC(N)=O)C(=O)N[C@@H](Cc1c[nH]c2ccccc12)C(=O)N[C@@H](CC(C)C)C(=O)N[C@@H](CC(C)C)C(=O)N[C@@H](C)C(=O)N[C@@H](CCC(N)=O)C(=O)N[C@@H](CCCCN)C(=O)NCC(=O)N[C@@H](CCCCN)C(=O)N[C@@H](CCCCN)C(=O)O)C(C)C)[C@@H](C)CC
B3: AT461 (peptide)
peptide: TFISDYKIAMDKIHQQDFVNWLLAQKGKKNDWKHNI
HELM: PEPTIDE1{T.F.I.S.D.Y.K.I.A.M.D.K.I.H.Q.Q.D.F.V.N.W.L.L.A.Q.K.G.K.K.N.D.W.K.H.N.I}|PEPTIDE2{[O=C(O)CCCCCCCCCCCCCCC(=O)[*:2]].[gGlu]}$PEPTIDE1,PEPTIDE2,7:R3-2:R2$$$V2.0; N-terminus assumed
SMILES: CC[C@H](C)[C@H](NC(=O)[C@H](CC(N)=O)NC(=O)[C@H](Cc1c[nH]cn1)NC(=O)[C@H](CCCCN)NC(=O)[C@H](Cc1c[nH]c2ccccc12)NC(=O)[C@H](CC(=O)O)NC(=O)[C@H](CC(N)=O)NC(=O)[C@H](CCCCN)NC(=O)[C@H](CCCCN)NC(=O)CNC(=O)[C@H](CCCCN)NC(=O)[C@H](CCC(N)=O)NC(=O)[C@H](C)NC(=O)[C@H](CC(C)C)NC(=O)[C@H](CC(C)C)NC(=O)[C@H](Cc1c[nH]c2ccccc12)NC(=O)[C@H](CC(N)=O)NC(=O)[C@@H](NC(=O)[C@H](Cc1ccccc1)NC(=O)[C@H](CC(=O)O)NC(=O)[C@H](CCC(N)=O)NC(=O)[C@H](CCC(N)=O)NC(=O)[C@H](Cc1c[nH]cn1)NC(=O)[C@@H](NC(=O)[C@H](CCCCN)NC(=O)[C@H](CC(=O)O)NC(=O)[C@H](CCSC)NC(=O)[C@H](C)NC(=O)[C@@H](NC(=O)[C@H](CCCCNC(=O)CC[C@H](NC(=O)CCCCCCCCCCCCCCC(=O)O)C(=O)O)NC(=O)[C@H](Cc1ccc(O)cc1)NC(=O)[C@H](CC(=O)O)NC(=O)[C@H](CO)NC(=O)[C@@H](NC(=O)[C@H](Cc1ccccc1)NC(=O)[C@@H](N)[C@@H](C)O)[C@@H](C)CC)[C@@H](C)CC)[C@@H](C)CC)C(C)C)C(=O)O
B4: AT462 (peptide)
peptide: TFISDYKIAMDKIHQQDFVNWLLAQKGKKNDWKHNIT
HELM: PEPTIDE1{T.F.I.S.D.Y.K.I.A.M.D.K.I.H.Q.Q.D.F.V.N.W.L.L.A.Q.K.G.K.K.N.D.W.K.H.N.I.T}|PEPTIDE2{[O=C(O)CCCCCCCCCCCCCCC(=O)[*:2]].[gGlu]}$PEPTIDE1,PEPTIDE2,7:R3-2:R2$$$V2.0; N-terminus assumed
SMILES: CC[C@H](C)[C@H](NC(=O)[C@H](CCCCNC(=O)CC[C@H](NC(=O)CCCCCCCCCCCCCCC(=O)O)C(=O)O)NC(=O)[C@H](Cc1ccc(O)cc1)NC(=O)[C@H](CC(=O)O)NC(=O)[C@H](CO)NC(=O)[C@@H](NC(=O)[C@H](Cc1ccccc1)NC(=O)[C@@H](N)[C@@H](C)O)[C@@H](C)CC)C(=O)N[C@@H](C)C(=O)N[C@@H](CCSC)C(=O)N[C@@H](CC(=O)O)C(=O)N[C@@H](CCCCN)C(=O)N[C@H](C(=O)N[C@@H](Cc1c[nH]cn1)C(=O)N[C@@H](CCC(N)=O)C(=O)N[C@@H](CCC(N)=O)C(=O)N[C@@H](CC(=O)O)C(=O)N[C@@H](Cc1ccccc1)C(=O)N[C@H](C(=O)N[C@@H](CC(N)=O)C(=O)N[C@@H](Cc1c[nH]c2ccccc12)C(=O)N[C@@H](CC(C)C)C(=O)N[C@@H](CC(C)C)C(=O)N[C@@H](C)C(=O)N[C@@H](CCC(N)=O)C(=O)N[C@@H](CCCCN)C(=O)NCC(=O)N[C@@H](CCCCN)C(=O)N[C@@H](CCCCN)C(=O)N[C@@H](CC(N)=O)C(=O)N[C@@H](CC(=O)O)C(=O)N[C@@H](Cc1c[nH]c2ccccc12)C(=O)N[C@@H](CCCCN)C(=O)N[C@@H](Cc1c[nH]cn1)C(=O)N[C@@H](CC(N)=O)C(=O)N[C@H](C(=O)N[C@H](C(=O)O)[C@@H](C)O)[C@@H](C)CC)C(C)C)[C@@H](C)CC

The target of the assay is T1, human GIP receptor (human, UniProt P48546 22-466).
T1 sequence (looked up): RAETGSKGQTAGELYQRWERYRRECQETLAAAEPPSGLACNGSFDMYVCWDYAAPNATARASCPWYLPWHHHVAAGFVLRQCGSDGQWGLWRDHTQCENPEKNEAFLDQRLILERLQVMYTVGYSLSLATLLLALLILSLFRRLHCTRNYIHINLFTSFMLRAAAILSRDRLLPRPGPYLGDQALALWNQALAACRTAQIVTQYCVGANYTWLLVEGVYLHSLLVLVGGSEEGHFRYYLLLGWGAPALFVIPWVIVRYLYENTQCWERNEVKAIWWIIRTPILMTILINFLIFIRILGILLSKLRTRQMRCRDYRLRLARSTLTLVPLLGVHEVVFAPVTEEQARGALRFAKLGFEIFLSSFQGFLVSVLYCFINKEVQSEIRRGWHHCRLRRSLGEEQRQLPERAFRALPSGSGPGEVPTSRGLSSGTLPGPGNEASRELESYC
The assay can be described thus: cell-based or functional assay.
Take B1: the “cAMP antagonism” value is 50 nM, the “cAMP antagonism % inhib” value amounted to 100% and the cAMP antagonism log was -7.3 log M.
Take B2: the “cAMP antagonism” value turned out to be 14 nM, the “cAMP antagonism % inhib” value came to 88% and the cAMP antagonism log is -7.8 log M.
The like results for B3 were, in that order, 23 nM, 100% and -7.6 log M.
Turning to B4, the “cAMP antagonism” value amounted to 37 nM, the “cAMP antagonism % inhib” value was 85% and the cAMP antagonism log is -7.4 log M.
